Consider 1 molecule from patent publication US20100291705A1, “ANTIGEN EXPOSING MICELLE AND UNORDERED AGGREGATE” (EURO-DIAGNOSTICA AB, priority 2007, published 2010).

For this data set, the target named is T1, (Homo sapiens, UniProt P02749).
T1 sequence (P02749 20-345): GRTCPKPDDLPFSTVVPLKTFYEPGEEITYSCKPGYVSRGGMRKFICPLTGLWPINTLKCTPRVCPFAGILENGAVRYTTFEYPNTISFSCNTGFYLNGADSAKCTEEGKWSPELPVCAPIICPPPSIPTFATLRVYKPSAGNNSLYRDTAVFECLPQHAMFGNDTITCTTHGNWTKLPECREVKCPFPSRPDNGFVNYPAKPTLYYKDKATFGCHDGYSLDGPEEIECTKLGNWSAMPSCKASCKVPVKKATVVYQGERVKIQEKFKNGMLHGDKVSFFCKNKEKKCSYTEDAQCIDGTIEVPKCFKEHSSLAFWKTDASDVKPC
Kind of data set: Detection of β2-GPI associated to the cardiolipin aggregates with mouse IgG anti-β2-GPI antibody (ELISA). The conditions noted are these: after washing with 0.05% Tween-20 in PBS. It is filed as binding. How it is done:
Antigen exposing lipid aggregates were prepared according to example 2 by mixing 90% cardiolipin with 10% PE-bio. The lipid aggregates were then adsorbed on a 96-well streptavidin coated ELISA plate (Eurodiagnostica AB) at concentration 90 μg/ml. The plate was incubated for 1 h at room temperature. The plate was washed three times with 0.05% Tween-20 in PBS and then incubated with or without β2-GPI for 30 minutes.
To determine the amount β2-GPI bound to cardiolipin aggregates a mouse IgG anti-β2-GPI antibody was used. This antibody was detected with an alkaline phosphatase conjugated anti-mouse IgG antibody (Sigma-Aldrich).
All the antibodies were diluted in PBS with 1% BSA and incubated for 1 h at RT. The plate was developed with alkaline phosphatase yellow liquid system for ELISA (Sigma-Aldrich) and absorbance 405 nm determined after 10-30 min. Between each incubation step the plate was washed three times with 0.05% Tween-20 in PBS.

B1: β2-GPI: protein incubated with bound cardiolipin aggregates to form the cardiolipin-β2-GPI complex (protein, UniProt P02749 20-345, looked up)
Beta-2-glycoprotein 1: T1 sequence (P02749 20-345)
In the case of B1, the “β2-GPI bound to cardiolipin aggregates (FIG. 8)” value was “remained associated with cardiolipin after washing with 0.05% Tween-20 in PBS”.
